Measured values from article PMC6235398, “Unveiling the structural features that determine the dual methyltransferase activities of Streptococcus pneumoniae RlmCD”.

How the values were obtained:
RlmCD Q283A = RlmCD Q283A (Streptococcus pneumoniae, UniProt Q97R12 1-543, Q283A); test: EMSA; 5 uM SAH; not severely affected vs WT; EMSA: 20 mM Tris-HCl pH 8.0, 250 mM NaCl, 1 mM MgCl2, 0.5 uM FAM-RNA, 5 uM SAH, 0-5 uM protein, 37 C 30 min; 10% native PAGE on ice; settings: protein: recombinant, tags: 8xHis-SUMO removed by ULP1, label: 5'-FAM
RlmCD D381A = RlmCD D381A (Streptococcus pneumoniae, UniProt Q97R12 1-543, D381A); test: as above; settings: protein: recombinant, tags: 8xHis-SUMO removed by ULP1, label: 5'-FAM
RlmCD F145A = RlmCD F145A (Streptococcus pneumoniae, UniProt Q97R12 1-543, F145A); test: EMSA; 5 uM SAH; almost no effect vs WT; EMSA: 20 mM Tris-HCl pH 8.0, 250 mM NaCl, 1 mM MgCl2, 0.5 uM FAM-RNA, 5 uM SAH, 0-5 uM protein, 37 C 30 min; 10% native PAGE on ice; settings: protein: recombinant; tags: 8xHis-SUMO removed by ULP1; label: 5'-FAM; 5' single strand with 3' hairpin
RlmCD WT = RlmCD WT (Streptococcus pneumoniae, UniProt Q97R12 1-543); test: EMSA; 5 uM SAH; two shifted bands; EMSA: 20 mM Tris-HCl pH 8.0, 250 mM NaCl, 1 mM MgCl2, 0.5 uM FAM-RNA, 5 uM SAH, 0-5 uM protein, 37 C 30 min; 10% native PAGE on ice; settings: protein: recombinant; tags: 8xHis-SUMO removed by ULP1; label: 5'-FAM; 5' single strand with 3' hairpin
RlmCD 1-454 E443Q [1] = target: T1, RlmCD 1-454 E443Q (Streptococcus pneumoniae, UniProt Q97R12 1-454, E443Q); test: X-ray crystallography; SAH (SAM added); covalent C408-U1939; 3.10 A; EMSA: 20 mM Tris-HCl pH 8.0, 250 mM NaCl, 1 mM MgCl2, 0.5 uM FAM-RNA, 5 uM SAH, 0-5 uM protein, 37 C 30 min; 10% native PAGE on ice; settings: protein: recombinant; tags: 8xHis-SUMO removed by ULP1; single strand
RlmCD 1-454 E443Q [2] = target: T1, RlmCD 1-454 E443Q; test: X-ray crystallography; SAH (SAM added); covalent C408-U747; space group P1, two complexes per asymmetric unit; EMSA: 20 mM Tris-HCl pH 8.0, 250 mM NaCl, 1 mM MgCl2, 0.5 uM FAM-RNA, 5 uM SAH, 0-5 uM protein, 37 C 30 min; 10% native PAGE on ice; settings: protein: recombinant; tags: 8xHis-SUMO removed by ULP1; hairpin, 2 bp stem (743-754, 744-753)
RlmCD 1-454 E443Q [3] = target: T1, RlmCD 1-454 E443Q; test: X-ray crystallography; SAH (SAM added); covalent C408-U747; EMSA: 20 mM Tris-HCl pH 8.0, 250 mM NaCl, 1 mM MgCl2, 0.5 uM FAM-RNA, 5 uM SAH, 0-5 uM protein, 37 C 30 min; 10% native PAGE on ice; settings: protein: recombinant; tags: 8xHis-SUMO removed by ULP1; single strand
[4] = 5' single strand with 3' hairpin
[5] = hairpin, 2 bp stem (743-754, 744-753)

B1: FAM-U1939 30-nt (structured_RNA)
RNA: GCGAAAUUCCUUGUCGGGUAAGUUCCGACC
- binding result (RlmCD Q283A; [4]): binds
- binding result (RlmCD D381A; [4]): binds
- binding result (RlmCD F145A): binds
- binding result (RlmCD WT): binds

B2: FAM-U747SL (structured_RNA)
RNA: CCGUUGAAAAGG
- binding result (RlmCD Q283A; [5]): binds
- binding result (RlmCD D381A; [5]): binds

B3: U1939L (ssRNA)
RNA: AAAUUCCU
modifications: m5 at U1939 formed in crystal, covalent to C408
- binding result (RlmCD 1-454 E443Q [1]): binds

B4: U747SL (structured_RNA)
RNA: CCGUUGAAAAGG
modifications: m5 at U747 formed in crystal, covalent to C408
- binding result (RlmCD 1-454 E443Q [2]): binds

B5: U747L (ssRNA)
RNA: GUUGAAAA
modifications: m5 at U747 formed in crystal, covalent to C408
- binding result (RlmCD 1-454 E443Q [3]): binds
